Assay results: the nanobody polyreactivity screen of Harvey et al. (2022)

Experiment: yeast display, Sf9 membrane polyspecificity reagent, FACS + sequencing; frameworks hold sequencing errors
In short: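 In a synthetic yeast display library (Saccharomyces cerevisiae BJ5465), nanobody expression was induced with galactose for 36–48 hours. FACS gates were set low and high (top ~1%) using anti-HA fluorescence for expression and streptavidin fluorescence for binding of the Sf9 membrane reagent. Each polyreactivity label is drawn from the gate of origin.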

Sequence: QVQLVESGGGLVQAGGSLRLSCAASGFTFERNTMGWYRPAPGKERELVATITRRGTSTYYADSVKGRFTISRDNAKNTVYLQMNSLKPEDTAVYYCARGQYSHRSQAGMDYWGQGTQVTVSS
- polyreactivity (PSR sort gate): high polyreactivity

Sequence: QVQLVESGGGLVQAGGSLRLSCAASGFTFERYAMGSYRQAPGKERELVAAISSRGGGTYYADSVKGRFTISRENAKNTVFLQMNSLKPEDTAVYYCNRPYDYSYNYWGQGTQVTVSS
- polyreactivity (PSR sort gate): high polyreactivity

Sequence: QVQLVESGGGLVQAGGSLRLSCAASGFTFESYTMGWYRQAPGKESELVAAINSGTSTYYADSVKGRFTISRDNAKNTVYLQMNSLKPEDTAVYYCNARRYRRYRKYDYWGQGTQVTVSS
- polyreactivity (PSR sort gate): high polyreactivity

Sequence: QVQLVESGGGLVQAGGSLRLSCAASGFTFEVYAMGRYRQAPGKERELVAAITSSGGRTYYADSVKGRFTISRDYAKNTVYLQMNSLKPEDTAGYYCAAYVSYEYGYWGQGSQVTVSS
- polyreactivity (PSR sort gate): high polyreactivity

Sequence: QVQLVESGGGLVQAGGSLRLSCAASGFTFEWNTMGWYRQAPGKERELVARINWSSGRTYYADSVKGRFTISRDNAKNTVYLQMNSLKPEDTAVYYCAASPYHSAYQNMDYWGQGTQVTVSS
- polyreactivity (PSR sort gate): high polyreactivity

Sequence: QVQLVESGGGLVQAGGSLRLSCAASGFTFFAYPMGWYRQAPGKERELVAGISRSGGRTYYADSVKGRFTISRDNAKNTVYLQMNSLKPEDTAVYYCNAVVRRSYLLEYDFCGQGTQVTVSS
- polyreactivity (PSR sort gate): high polyreactivity

Sequence: QVQLVESGGGLVQAGGSLRLSCAASGFTFFDYVMGWYRQAPGKERELVAAISRNVGSTYYADSVKGRFTISRDNAKTTVYLQMNSLKPEDTAVYYCAAEPPPYEYDYWGQGTQVTVSS
- polyreactivity (PSR sort gate): high polyreactivity

Sequence: QVQLVESGGGLVQAGGSLRLSCAASGFTFFEDNAMGWYRQAPGKERELVAAITSGGSTNYADSVKGRFTFSRDNAKNTVYLQMNSLKPEDTAVYYCAKDRVPLKTRFYYFPWGYDYWGQGTQVTVSS
- polyreactivity (PSR sort gate): low polyreactivity

Sequence: QVQLVESGGGLVQAGGSLRLSCAASGFTFFGYAMGWYRQAPGKERELVATISDTGGSTYADSVKGRFTISRDNAKNTVYLQMNSLKPEDTAVYYCNARSVFYSMDYWGQGTQVTVSS
- polyreactivity (PSR sort gate): low polyreactivity

Sequence: QVQLVESGGGLVQAGGSLRLSCAASGFTFFIYVMGWYRQAPGKEREFVAAISSSGDSTYYADSVKGRFTSSRDNAKNTVYLQMNSLKPEDTAVYYCNAGDKVSSYWYDYWGQGTQVTVSS
- polyreactivity (PSR sort gate): low polyreactivity

Sequence: QVQLVESGGGLVQAGGSLRLSCAASGFTFFNYGRGWSRQAHGKERELVAAISSNGGLTYYADSVKGRFTISRDNAKNTVYLQMNSLKPEDTAVYYCATLYYGRVDYDYWGQGTQVTVSS
- polyreactivity (PSR sort gate): high polyreactivity

Sequence: QVQLVESGGGLVQAGGSLRLSCAASGFTFFRIYAMGWYRQAPGKERELVAAISRSGSTYADSVKGRFTISRDNAKNTVYLQMNSLKPEDTAVYYCNTTLYADSVWYDYWGQGTQVTVSS
- polyreactivity (PSR sort gate): high polyreactivity

Sequence: QVQLVESGGGLVQAGGSLRLSCAASGFTFFRYAMGWYRQAPGKERELVAAISYSGGNTYYADSVKGRFTISRDNAKNTVYLQMNSLKPEDTAVYYCNAVHFWKYDYWGQGTQVTVSS
- polyreactivity (PSR sort gate): high polyreactivity

Sequence: QVQLVESGGGLVQAGGSLRLSCAASGFTFFSNAMGWYRQAPGKERELVAAITSSGGSTYADSVKGRFTISRDNAKNTVYLQMNSLKPEDTAVYYCAADAEAPPGGFKEYDYWGHGTQVTVSS
- polyreactivity (PSR sort gate): low polyreactivity

Sequence: QVQLVESGGGLVQAGGSLRLSCAASGFTFFSNAMGWYRQAPGKERELVAAITSSGGSTYADSVKGRFTISRDNAKNTVYLQMNSLKPEDTAVYYCAADAQAPPGGFKEYDYWGQGTQVTVSS
- polyreactivity (PSR sort gate): low polyreactivity

Sequence: QVQLVESGGGLVQAGGSLRLSCAASGFTFFSNAMGWYRQAPGKERELVASITNDGSTDADSVKGRFTISRDNAKNTVYLQMNSLKPEDTAVYYCAADFYLWRLPVYAQRYFVRGDYWGQGTQVTVSS
- polyreactivity (PSR sort gate): low polyreactivity

Sequence: QVQLVESGGGLVQAGGSLRLSCAASGFTFFTYAMGWYRQAPGNERELVAAISSSGDRTYYADSVKGRFTISRDNAKNTVYLQMNSLKPEDTAVYYCAVYKYYHFYYWGQGTQVTVSS
- polyreactivity (PSR sort gate): high polyreactivity

Sequence: QVQLVESGGGLVQAGGSLRLSCAASGFTFFYYVMGWYRQAPGKERELVAAISQHGGSTYYADSVKGRFTISRDNAKNTVYLQMNSLKPEDTAVYYSAASPVVNRRGTYGYWGQGTQVTVSS
- polyreactivity (PSR sort gate): high polyreactivity

Sequence: QVQLVESGGGLVQAGGSLRLSCAASGFTFGAYAMGSYRQAPGKERELVASINWSGGSTYYADSVKGRFTISRDYAMNTVYFQMNRLKPEDTAVYYCAARESYPGYGYDHWGQGTQVTVSS
- polyreactivity (PSR sort gate): low polyreactivity

Sequence: QVQLVESGGGLVQAGGSLRLSCAASGFTFGDYAMGWYRQAHGKERELVAAINGRSGSTYYPDSVNGRFTISRDNAKNTVYLQMNSLKPEDTAVYYCATRWRLPSRSNFDYWGQGTQVTLSS
- polyreactivity (PSR sort gate): low polyreactivity

Sequence: QVQLVESGGGLVQAGGSLRLSCAASGFTFGENAMGWYRQAPGKDRELVAAITSGDGTSYADSVKGRFTISRDNAKNTVYLQMNSLKPEDTAVYSCAADVNYYQHRLYYWGLGTQVTVSS
- polyreactivity (PSR sort gate): low polyreactivity

Sequence: QVQLVESGGGLVQAGGSLRLSCAASGFTFGFNDMGWYRQAPGKERELVAAITIGGTTNYADSVKGRFTISRDNAKNTVYLQMNSLKPEDTAVYSCAADTRVVYDEDYWGQGTQVTVSS
- polyreactivity (PSR sort gate): low polyreactivity

Sequence: QVQLVESGGGLVQAGGSLRLSCAASGFTFGFYVMGWYRQAPGKERELVAAITVRAGSTYYADSVKGRFTISRDNAKNTVYLQMNSLKPEDTAVYYCAADSYRLYSSIAYYGMYSWGQGTQVTVSS
- polyreactivity (PSR sort gate): high polyreactivity

Sequence: QVQLVESGGGLVQAGGSLRLSCAASGFTFGGNVMGWYSQAPGKERELVAAISGAGSKYYADSVKGRFTISRDNAKNTVNLQMNSLKPEDTAVNYCAADDVARYLSGYDYWGQGTQVTVSS
- polyreactivity (PSR sort gate): low polyreactivity

Sequence: QVQLVESGGGLVQAGGSLRLSCAASGFTFGGYAMGWYIQAPGKERELVSAISGSGGRTYYADSVKGRFTISRDNAKNTVYLQMNSLKPEDTAVYYCATDGYWQSNGAFYYVARHGGYCGQGTQVTVSS
- polyreactivity (PSR sort gate): low polyreactivity

Sequence: QVQLVESGGGLVQAGGSLRLSCAASGFTFGHYAMGWYRQAPGKQRELVAAISYSGVRTYYADSVKGRFTISRDNAKNTVYLQMNSLKPEDTAVYYCNKYPAHYQTRRYDYWGQGTQVTVSS
- polyreactivity (PSR sort gate): high polyreactivity

Sequence: QVQLVESGGGLVQAGGSLRLSCAASGFTFGINAMGWSRQAPGKERELVASISSGSSTTYADSVKGRFTISRDNAKNTVYLQMNRLKPEDTAVYYCNARPFHIYWRYDYWGQGTQVTVSS
- polyreactivity (PSR sort gate): low polyreactivity

Sequence: QVQLVESGGGLVQAGGSLRLSCAASGFTFGNYAMGWYRQAPGKERELVAVISYSTGSTYYADSVKGRFTISRDNAKNTVYLQMNSLKPEDTAVYYCAKRYRSYYQGYGYWGQGTQVTVSS
- polyreactivity (PSR sort gate): high polyreactivity

Sequence: QVQLVESGGGLVQAGGSLRLSCAASGFTFGPNTMGWYRPAPGKERELVAAISARGGRTYYADSVKGRFTISRDNAKNTVYLQMNSLKPEDTAVYYCAAPGYVRTGVTYGGYYWGQGTQVTVSS
- polyreactivity (PSR sort gate): high polyreactivity

Sequence: QVQLVESGGGLVQAGGSLRLSCAASGFTFGQYAMGWYRQAPVKERELVAAITGSGGRTYYADSVKGRITISRDTAKNTVYLQMNSLKPEDTGVYYCNARVPLRQYSNYYWGQGTQVTVSS
- polyreactivity (PSR sort gate): high polyreactivity

Sequence: QVQLVESGGGLVQAGGSLRLSCAASGFTFGRNAMGWYRQAHGKERELVASIDWSGGSTYYADSVKGRFTISRDNAKNTFYLQMNTLKPEDTAVYYCAVGPNSVGNRSYGFDYWGQGTQVTLSS
- polyreactivity (PSR sort gate): low polyreactivity

Sequence: QVQLVESGGGLVQAGGSLRLSCAASGFTFGRYAMGWYRPAPGKERELVAAISRSGGRTYYADTVKGRFTISRDNAKNTVYLQMNSLKPEHTAVYYCAAYGGVEDDYWGQGTQVTVSS
- polyreactivity (PSR sort gate): low polyreactivity

Sequence: QVQLVESGGGLVQAGGSLRLSCAASGFTFGRYAMGWYRQAPGKERELVAAITSRGGSTYYADSVKGRFTISRDNAKNTVYLQMNSLKPEDTAVYYCNRDLVDSYGYWGQGTQVTVSS
- polyreactivity (PSR sort gate): high polyreactivity

Sequence: QVQLVESGGGLVQAGGSLRLSCAASGFTFGSNTMGWYRQAPGKERELVAAITTSGDSTYYADSVKGRFTISRDNAKNTVYLQMNCLKPEDTAVYYCAAERRYGRYYRLVRLLGQGTQVTVSS
- polyreactivity (PSR sort gate): high polyreactivity

Sequence: QVQLVESGGGLVQAGGSLRLSCAASGFTFGSYVMGWYRQAPGKERELVADISIRGGSTYYADSVKGRFTISRDNAKNTVYLQMHSLKPEDTAVYDCNADPAFYYWEGIVGGADYDYWGQGTQVTVSS
- polyreactivity (PSR sort gate): low polyreactivity

Sequence: QVQLVESGGGLVQAGGSLRLSCAASGFTFGTYTMGWYRQAPGKERELVAAISGSGGSTYYADSVKGRFTISRDNAKNTDYLQMNSLKPEDTAVYYCAAVGRSKRDGYWGQGTQVTVST
- polyreactivity (PSR sort gate): high polyreactivity

Sequence: QVQLVESGGGLVQAGGSLRLSCAASGFTFGWYAMGWYRPAPGKERELVAAISRSGGSTYYADSVKGRFTISRDTAKNTVYLQMNSLKPEDTAVYYCAATYPQGKYTYGRSYDYWGQGTQVTVSS
- polyreactivity (PSR sort gate): high polyreactivity

Sequence: QVQLVESGGGLVQAGGSLRLSCAASGFTFGWYAMGWYRQAPGKEREFVAAISQTGGSTYYADSVKGRFTISRDNAKNTVYLQMNSLKPEDTAVYYCAAPGKRRGVYYWGQGTQVTVSS
- polyreactivity (PSR sort gate): high polyreactivity

Sequence: QVQLVESGGGLVQAGGSLRLSCAASGFTFGWYAMGWYRQAPGKERELVAAIRSDGSTYYADSVKGRFTISRDNAKNTVYLQMNSLKPEDTAVDYCAAVYYQRGWEFDYWGQGTQVTVSS
- polyreactivity (PSR sort gate): low polyreactivity

Sequence: QVQLVESGGGLVQAGGSLRLSCAASGFTFGWYAMGWYRQAPGKERELVADITYNDASTYYADSVKGRFTISRDNAKNTVYLQMNSLKPEDTAVYYCNAVHRRYLVTHPYDYWGQGTQVTVSS
- polyreactivity (PSR sort gate): low polyreactivity

Sequence: QVQLVESGGGLVQAGGSLRLSCAASGFTFGYNAMGRYRQAPGKERELVAAITSGGSTNYADSVKGRFTISRDNAKNTVYLQMNSLKPEDNAVYYCATGVRPWRKKPVEFYHWGQGTQVTVSS
- polyreactivity (PSR sort gate): low polyreactivity

Sequence: QVQLVESGGGLVQAGGSLRLSCAASGFTFGYNDMGWYRQAPGKERELVAGIRSGDDTNYADSVKGRFTISRDNAKNTVYLQMYSLKPEDTAVYYCAADRTTYTYYLPYDYWGQGTQVTVSS
- polyreactivity (PSR sort gate): low polyreactivity

Sequence: QVQLVESGGGLVQAGGSLRLSCAASGFTFGYYAMGWSRQAPGKESELLATITSSGASTYADSVKGRFTISRDNAKNTVYLQMNSLKPEDTAVYYCAADRLPSYWSWYGYDYWGQGTQVTVSS
- polyreactivity (PSR sort gate): high polyreactivity
